Read-outs that look alike come from different tables or passages of the source. Numbered stars: 1 amine (or outer) side, 2 acyl side, 3 side chain; on linkers, the order of the positions; unused ones are H or OH. Square brackets hold non-standard residues; d marks the D form. Side chains are listed from the residue outwards. Ends that are not written are not given here. γGlu = O=C(O)[C@H](CCC(=O)[*:2])N[*:1]; x53 = not defined here; x70 = not defined here; Aib = CC(C)(N)C(=O)O
Tests used:
Test in all cases: cell-based or functional assay
[1] = molecular target: T1, human glucagon receptor (human, UniProt P47871 26-477)
T1 sequence (P47871 26-477): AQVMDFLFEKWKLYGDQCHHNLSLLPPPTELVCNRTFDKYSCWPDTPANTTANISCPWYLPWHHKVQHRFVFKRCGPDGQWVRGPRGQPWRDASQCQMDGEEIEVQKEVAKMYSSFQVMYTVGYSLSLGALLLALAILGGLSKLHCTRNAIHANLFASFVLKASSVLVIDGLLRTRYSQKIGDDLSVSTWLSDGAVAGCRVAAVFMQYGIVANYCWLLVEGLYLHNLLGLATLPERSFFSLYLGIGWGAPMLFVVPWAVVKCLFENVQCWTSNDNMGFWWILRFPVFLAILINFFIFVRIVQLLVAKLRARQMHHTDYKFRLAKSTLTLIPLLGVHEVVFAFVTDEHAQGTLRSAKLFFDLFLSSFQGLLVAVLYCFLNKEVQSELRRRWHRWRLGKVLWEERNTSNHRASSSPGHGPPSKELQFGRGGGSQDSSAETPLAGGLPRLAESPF

[2] = molecular target: T2, human GLP-1 receptor (human, UniProt P43220 24-463)
[3] = molecular target: T1, human glucagon receptor; remark: listed apart in the source
[4] = molecular target: T2, human GLP-1 receptor; remark: listed apart in the source

Binder	EC50 hGlucagon-R (cAMP) [1] [pM]	EC50 hGLP-1R (cAMP) [2] [pM]	EC50 hGlucagon-R (cAMP) [3] [pM]	EC50 hGLP-1R (cAMP) [4] [pM]
H[Aib]QGTFTSDLSKQK([γGlu-x53])ESKAAQDFIEWLKAGGPSSGAPPPS-NH2 (reading uncertain) [SEQ ID NO: 25]	40.6	4.2		
H[Aib]QGTFTSDLSKQK(x53)ESQAAQDFIEWLKAGGPSSGAPPPS-NH2 (reading uncertain) [SEQ ID NO: 43]	443	4.1		
H[Aib]QGTFTSDLSKQK(x53)ESKAAQDFIEWLKAGGPSSGAPPPS-NH2 (reading uncertain) [SEQ ID NO: 33]	473	11.2		
H[Aib]QGTFTSDLSKQK([γGlu-x53])ESQAAQEFIEWLKAGGPSSGAPPPS-NH2 (reading uncertain) [SEQ ID NO: 38]	53.1	2.9		
H[Aib]QGTFTSDLSKQK([γGlu-x53])ESQAAQDFIEWLKAGGPSSGAPPPS-NH2 (reading uncertain) [SEQ ID NO: 36]	45.9	2.7		
HXQGTFTSDLSKQKESKAAQLFIEWLKAGGPSSGAPPPS (dSer at 2; K(γE-x70) at 14; C-terminal NH2) [SEQ ID NO: 27]	25.1	7.7		
HXQGTFTSDLSKQKESRAAXLFIEWLKAGGPSSGAPPPS (dSer at 2; K(γE-x53) at 14; Aib at 20; C-terminal NH2) [SEQ ID NO: 46]	25.1	3.2		
HXQGTFTSDLSKQKESKAAQLFIEWLKAGGPSSGAPPPS (dSer at 2; K(γE-x53) at 14; C-terminal NH2) [SEQ ID NO: 29]	87.9	5.9		
HXQGTFTSDLSKQKESQAAQEFIEWLKAGGPSSGAPPPS (dSer at 2; K(γE-x53) at 14; C-terminal NH2) [SEQ ID NO: 37]	12.9	1.5		
HXQGTFTSDLSKQKESKAAQEFIEWLKAGGPSSGAPPPS (dSer at 2; K(γE-x53) at 14; C-terminal NH2) [SEQ ID NO: 28]	12.6	5.5		
H[Aib]QGTFTSDLSKQK([γGlu-x70])ESQAAQDFIEWLKAGGPSSGAPPPS-NH2 (reading uncertain) [SEQ ID NO: 41]	20.7	3.3		
HXQGTFTSDLSKQKDSRRAQDFIEWLKNGGPSSGAPPPS (dSer at 2; K(γE-x53) at 14; C-terminal NH2) [SEQ ID NO: 97]	1	3.5	1.2	
HXQGTFTSDLSKQKDSQAAQDFIEWLKAGGPSSGAPPPS (dSer at 2; K(γE-x53) at 14; C-terminal NH2) [SEQ ID NO: 39]	7.6	2.7		
HXQGTFTSDLSKQKESKAAQDFIEWLKAGGPSSGAPPPS (dSer at 2; K(γE-x70) at 14; C-terminal NH2) [SEQ ID NO: 26]	5.4	5.1		
HXQGTFTSDLSKQKESRAAQDFIEWLKAGGPSSGAPPPS (dSer at 2; K(γE-x53) at 14; C-terminal NH2) [SEQ ID NO: 44]	12	2.7		
HXQGTFTSDLSKQKESRAAQEFIEWLKAGGPSSGAPPPS (dSer at 2; K(γE-x53) at 14; C-terminal NH2) [SEQ ID NO: 47]	10.3	2.2		
HXQGTFTSDLSKQKESRAAQDFIEWLKAGGPSSGAPPPS (dSer at 2; K(GABA-x53) at 14; C-terminal NH2) [SEQ ID NO: 50]	11.1	3.3		

Binder	EC50 hGlucagon-R (cAMP) [1] [pM]	EC50 hGLP-1R (cAMP) [2] [pM]	EC50 hGlucagon-R (cAMP) [3] [pM]	EC50 hGLP-1R (cAMP) [4] [pM]
HXQGTFTSDLSKQKESRAAQDFIEWLKAGGPSSGAPPPS (dSer at 2; K(γE-γE-x53) at 14; C-terminal NH2) [SEQ ID NO: 49]	2.9	1.1		
HXQGTFTSDLSKQXDSKAAQDFIEWLKAGGPSSGAPPPS (dSer at 2; Nle at 14; C-terminal NH2) [SEQ ID NO: 192]			478	
HXQGTFTSDLSKQKESKAAQDFIEWLKAGGPSSGAPPPS (dSer at 2; K(x53) at 14; C-terminal NH2) [SEQ ID NO: 32]	188	10.2		
HXQGTFTSDLSKQKDSRRAQDFIEWLKNGGPSSGAPPPS (dSer at 2; C-terminal NH2) [SEQ ID NO: 183]			916	1020
HXQGTFTSDLSKQKESQAAQDFIEWLKAGGPSSGAPPPS (dSer at 2; K(x53) at 14; C-terminal NH2) [SEQ ID NO: 42]	199	10.2		
HXQGTFTSDLSKQMDSRRAQDFIEWLKNGGPSSGAPPPS (Aib at 2; C-terminal NH2) [SEQ ID NO: 182]			419	5.8
HXQGTFTSDLSKQMDSRRAQDFIEWLKRGGPSSGAPPPS (dSer at 2; C-terminal NH2) [SEQ ID NO: 185]			262	75.7
HXQGTFTSDLSKQKESRAAQLFIEWLKAGGPSSGAPPPS (dSer at 2; K(γE-x53) at 14; C-terminal NH2) [SEQ ID NO: 48]	53.6	5.9		
HXQGTFTSDLSKQKESRAAQLFIEWLKAGGPSSGAPPPS (dSer at 2; K(γE-x70) at 14; C-terminal NH2) [SEQ ID NO: 45]	19.9	7.5		
HXQGTFTSDLSKQKESQAAQDFIEWLKAGGPSSGAPPPS (dSer at 2; K(γE-x53) at 14; C-terminal NH2) [SEQ ID NO: 35]	14.2	1.5		
HXQGTFTSDLSKQMESRRAQDFIEWLKAGGPSSGAPPPS (dSer at 2; C-terminal NH2) [SEQ ID NO: 184]			991	85.7
HXQGTFTSDLSKQKDEQAAQDFIEWLKAGGPSSGAPPPS (dSer at 2; K(γE-x53) at 14; C-terminal NH2) [SEQ ID NO: 34]	6.7	1.5		
HXQGTFTSDLSKQKESQAAQDFIEWLKAGGPSSGAPPPS (dSer at 2; K(γE-x70) at 14; C-terminal NH2) [SEQ ID NO: 40]	4.8	2.6		
HXQGTFTSDLSKQKESRRAQDFIEWLKAGGPSSGAPPPS (dSer at 2; K(Ac) at 14; C-terminal NH2) [SEQ ID NO: 194]			1290	159
H[Aib]QGTFTSDLSKQK([γGlu-x53])DSKAAQDFIEWLKAGGPSSGAPPPS-NH2 (reading uncertain) [SEQ ID NO: 31]	9.3	1.7		
H[Aib]QGTFTSDLSKQK(x53)ESRRAQDFIEWLKAGGPSSGAPPPS-NH2 (reading uncertain) [SEQ ID NO: 5]	109	11		
